Legend:
AncSZ = experiment: phosphorylation enrichment, bacterial display (enrichment ratio); higher = better substrate or ligand; peptides without Tyr show the background
EPHB1 = EPHB1 (UniProt P54762); experiment: as above
EPHB2 = EPHB2 (UniProt P29323); experiment: as above
FGFR1 = FGFR1 (UniProt P11362); experiment: as above
FGFR3 = FGFR3 (UniProt P22607); experiment: as above
Fer (mouse) = experiment: as above
Fes = Fes (UniProt P07332); experiment: as above
Fyn = Fyn (UniProt P06241); experiment: as above
Hck = Hck (UniProt P08631); experiment: as above
Jak2 = Jak2 (UniProt O60674); experiment: as above
MERTK = MERTK (UniProt Q12866); experiment: as above
c-Abl (mouse) = experiment: as above
c-Src = experiment: as above
Grb2 SH2 = Grb2 SH2 (UniProt P62993); experiment: SH2 binding enrichment of the phosphorylated peptide, bacterial display (enrichment ratio); higher = better substrate or ligand; peptides without Tyr show the background
SHP2-C SH2 = experiment: as above
c-Src SH2 = experiment: as above
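Throughout, for SH2 binding enrichment of the phosphorylated peptide, bacterial display: peptide library displayed on the E. coli surface as eCPX fusions, selected cells deep-sequenced, score is each peptide's frequency after selection divided by its frequency in the input.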
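Throughout, for phosphorylation enrichment, bacterial display: 11-residue human phosphosite peptides and single-mutation variants displayed on the E. coli surface, counted by deep sequencing, each peptide's frequency after selection divided by its frequency in the unselected input library; frequency after pTyr selection over input frequency; kinase dosed for 20-30% of maximal phosphorylation in three min.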

Chain of Grb2 SH2 (P62993 whole entry, looked up): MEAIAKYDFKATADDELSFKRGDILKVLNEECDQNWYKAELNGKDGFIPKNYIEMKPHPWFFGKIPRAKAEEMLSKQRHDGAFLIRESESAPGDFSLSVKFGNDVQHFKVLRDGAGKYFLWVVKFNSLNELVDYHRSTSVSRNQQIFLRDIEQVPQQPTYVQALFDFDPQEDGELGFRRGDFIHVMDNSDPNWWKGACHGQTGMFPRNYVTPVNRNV
Chain of EPHB1 (P54762 whole entry, looked up): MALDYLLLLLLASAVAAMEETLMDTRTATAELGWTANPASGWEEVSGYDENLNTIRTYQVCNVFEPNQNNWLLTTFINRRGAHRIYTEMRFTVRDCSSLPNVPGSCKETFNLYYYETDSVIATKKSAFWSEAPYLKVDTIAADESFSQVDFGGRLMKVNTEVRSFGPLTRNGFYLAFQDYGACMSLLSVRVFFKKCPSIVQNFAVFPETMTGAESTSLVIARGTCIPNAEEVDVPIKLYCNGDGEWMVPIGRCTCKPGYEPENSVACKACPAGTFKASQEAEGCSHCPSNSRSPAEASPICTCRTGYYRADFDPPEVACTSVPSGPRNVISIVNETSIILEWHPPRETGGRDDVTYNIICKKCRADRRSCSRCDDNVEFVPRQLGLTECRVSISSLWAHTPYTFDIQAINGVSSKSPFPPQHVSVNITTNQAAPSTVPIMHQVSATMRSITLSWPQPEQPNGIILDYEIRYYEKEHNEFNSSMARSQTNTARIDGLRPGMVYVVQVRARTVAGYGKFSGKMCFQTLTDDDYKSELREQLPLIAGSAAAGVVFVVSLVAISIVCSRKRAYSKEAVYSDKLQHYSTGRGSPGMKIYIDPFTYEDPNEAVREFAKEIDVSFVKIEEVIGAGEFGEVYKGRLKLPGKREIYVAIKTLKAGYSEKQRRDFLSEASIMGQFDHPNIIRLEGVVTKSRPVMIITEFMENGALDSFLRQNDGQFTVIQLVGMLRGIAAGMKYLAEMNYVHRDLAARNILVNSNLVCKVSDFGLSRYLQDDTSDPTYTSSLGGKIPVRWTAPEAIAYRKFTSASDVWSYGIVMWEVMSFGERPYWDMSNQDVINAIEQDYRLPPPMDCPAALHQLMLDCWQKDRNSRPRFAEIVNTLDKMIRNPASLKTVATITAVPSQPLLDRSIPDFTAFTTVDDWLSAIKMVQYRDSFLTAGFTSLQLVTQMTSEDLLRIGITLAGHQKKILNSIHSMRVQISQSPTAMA
Chain of Jak2 (O60674 whole entry, looked up): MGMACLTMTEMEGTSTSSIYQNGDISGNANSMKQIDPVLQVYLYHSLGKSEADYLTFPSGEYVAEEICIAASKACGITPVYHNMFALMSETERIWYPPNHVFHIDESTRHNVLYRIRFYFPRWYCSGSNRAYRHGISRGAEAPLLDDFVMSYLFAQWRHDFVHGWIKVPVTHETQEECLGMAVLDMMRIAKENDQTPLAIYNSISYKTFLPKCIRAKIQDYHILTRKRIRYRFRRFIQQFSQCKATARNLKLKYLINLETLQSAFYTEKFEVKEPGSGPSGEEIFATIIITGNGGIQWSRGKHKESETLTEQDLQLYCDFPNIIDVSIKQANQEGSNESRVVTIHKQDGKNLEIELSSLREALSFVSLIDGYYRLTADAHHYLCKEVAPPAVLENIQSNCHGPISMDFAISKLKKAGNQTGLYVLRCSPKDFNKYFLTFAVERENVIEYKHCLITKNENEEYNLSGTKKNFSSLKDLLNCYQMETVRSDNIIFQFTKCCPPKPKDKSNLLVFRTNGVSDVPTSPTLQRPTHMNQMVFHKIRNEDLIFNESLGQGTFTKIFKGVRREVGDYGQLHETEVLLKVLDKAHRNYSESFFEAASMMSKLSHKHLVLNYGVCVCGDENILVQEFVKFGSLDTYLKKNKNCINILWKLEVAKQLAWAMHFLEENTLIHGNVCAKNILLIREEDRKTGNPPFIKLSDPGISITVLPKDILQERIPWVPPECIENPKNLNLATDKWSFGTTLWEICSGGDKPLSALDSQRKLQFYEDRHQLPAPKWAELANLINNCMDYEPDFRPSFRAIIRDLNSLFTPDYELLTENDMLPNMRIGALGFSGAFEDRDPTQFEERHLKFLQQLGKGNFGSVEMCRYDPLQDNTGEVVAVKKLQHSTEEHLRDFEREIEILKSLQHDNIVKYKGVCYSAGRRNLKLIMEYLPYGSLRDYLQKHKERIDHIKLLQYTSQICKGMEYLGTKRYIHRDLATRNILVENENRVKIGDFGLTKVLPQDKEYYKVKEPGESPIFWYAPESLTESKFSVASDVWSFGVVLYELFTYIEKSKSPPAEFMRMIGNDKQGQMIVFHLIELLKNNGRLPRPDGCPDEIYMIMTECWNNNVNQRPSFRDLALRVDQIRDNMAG
Chain of EPHB2 (P29323 whole entry, looked up): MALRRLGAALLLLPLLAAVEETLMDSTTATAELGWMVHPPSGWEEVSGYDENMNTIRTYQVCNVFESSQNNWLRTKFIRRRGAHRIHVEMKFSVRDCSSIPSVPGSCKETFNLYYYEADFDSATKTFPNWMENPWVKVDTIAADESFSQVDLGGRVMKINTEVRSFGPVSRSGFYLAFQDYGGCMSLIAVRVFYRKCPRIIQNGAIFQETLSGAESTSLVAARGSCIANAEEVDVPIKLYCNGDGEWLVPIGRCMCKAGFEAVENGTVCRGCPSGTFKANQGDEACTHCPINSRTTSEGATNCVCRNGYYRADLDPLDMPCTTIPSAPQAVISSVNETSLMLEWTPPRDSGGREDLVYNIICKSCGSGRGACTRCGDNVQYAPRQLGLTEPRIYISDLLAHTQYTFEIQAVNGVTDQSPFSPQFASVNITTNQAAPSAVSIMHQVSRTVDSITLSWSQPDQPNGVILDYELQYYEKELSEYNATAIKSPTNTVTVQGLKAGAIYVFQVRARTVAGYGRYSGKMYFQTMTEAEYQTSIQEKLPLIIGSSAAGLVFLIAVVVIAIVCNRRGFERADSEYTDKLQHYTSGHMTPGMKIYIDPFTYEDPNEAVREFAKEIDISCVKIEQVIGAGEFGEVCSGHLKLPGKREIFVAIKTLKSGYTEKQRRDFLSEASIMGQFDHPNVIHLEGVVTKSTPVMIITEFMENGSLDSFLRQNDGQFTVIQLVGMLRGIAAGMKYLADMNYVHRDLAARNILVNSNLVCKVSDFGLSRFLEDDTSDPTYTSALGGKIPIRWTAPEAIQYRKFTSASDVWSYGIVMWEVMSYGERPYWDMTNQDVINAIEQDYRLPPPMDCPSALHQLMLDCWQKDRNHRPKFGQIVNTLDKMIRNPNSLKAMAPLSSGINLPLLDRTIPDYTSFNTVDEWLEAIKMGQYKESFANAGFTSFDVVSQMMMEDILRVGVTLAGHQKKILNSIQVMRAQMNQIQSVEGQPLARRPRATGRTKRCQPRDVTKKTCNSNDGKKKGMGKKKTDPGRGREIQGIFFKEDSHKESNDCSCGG
Chain of Fes (P07332 whole entry, looked up): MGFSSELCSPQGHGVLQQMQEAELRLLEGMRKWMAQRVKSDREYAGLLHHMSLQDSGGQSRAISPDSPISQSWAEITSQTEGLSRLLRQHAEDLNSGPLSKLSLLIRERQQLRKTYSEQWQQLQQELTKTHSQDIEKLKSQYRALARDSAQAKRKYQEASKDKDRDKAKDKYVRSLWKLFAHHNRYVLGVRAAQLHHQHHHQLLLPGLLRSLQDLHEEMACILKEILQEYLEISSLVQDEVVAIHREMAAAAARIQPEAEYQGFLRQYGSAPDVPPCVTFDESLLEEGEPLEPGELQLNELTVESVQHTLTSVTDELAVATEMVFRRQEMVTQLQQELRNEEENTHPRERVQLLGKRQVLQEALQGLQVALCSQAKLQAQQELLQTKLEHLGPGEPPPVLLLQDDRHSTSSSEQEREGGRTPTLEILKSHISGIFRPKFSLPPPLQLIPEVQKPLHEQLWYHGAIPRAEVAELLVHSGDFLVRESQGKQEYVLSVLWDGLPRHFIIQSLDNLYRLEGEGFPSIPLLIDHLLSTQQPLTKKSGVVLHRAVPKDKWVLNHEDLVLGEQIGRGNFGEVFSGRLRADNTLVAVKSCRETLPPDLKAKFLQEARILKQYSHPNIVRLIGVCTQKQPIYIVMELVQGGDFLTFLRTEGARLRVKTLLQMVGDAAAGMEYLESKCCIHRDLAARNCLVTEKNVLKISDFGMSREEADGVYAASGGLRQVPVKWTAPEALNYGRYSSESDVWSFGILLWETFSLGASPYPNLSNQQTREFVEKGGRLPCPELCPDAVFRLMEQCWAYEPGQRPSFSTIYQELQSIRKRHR
Chain of Fyn (P06241 whole entry, looked up): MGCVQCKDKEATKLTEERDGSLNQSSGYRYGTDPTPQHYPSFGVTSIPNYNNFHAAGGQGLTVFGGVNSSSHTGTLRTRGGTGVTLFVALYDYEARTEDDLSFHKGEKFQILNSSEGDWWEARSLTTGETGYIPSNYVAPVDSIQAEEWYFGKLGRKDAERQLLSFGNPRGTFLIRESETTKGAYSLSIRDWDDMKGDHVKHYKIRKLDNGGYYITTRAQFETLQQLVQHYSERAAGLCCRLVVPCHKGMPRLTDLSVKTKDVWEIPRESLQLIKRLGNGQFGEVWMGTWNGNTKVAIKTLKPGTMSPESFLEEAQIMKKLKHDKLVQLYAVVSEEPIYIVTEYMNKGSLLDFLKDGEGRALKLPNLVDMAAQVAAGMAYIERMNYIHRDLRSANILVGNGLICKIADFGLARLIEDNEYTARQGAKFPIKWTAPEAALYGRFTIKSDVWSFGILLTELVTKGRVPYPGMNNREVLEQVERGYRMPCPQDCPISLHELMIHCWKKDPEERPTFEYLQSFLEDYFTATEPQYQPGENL

Sequence | phosphorylation enrichment (AncSZ) | phosphorylation enrichment (EPHB1) | phosphorylation enrichment (EPHB2) | phosphorylation enrichment (FGFR1) | phosphorylation enrichment (FGFR3) | phosphorylation enrichment (Fer (mouse)) | phosphorylation enrichment (Fes) | phosphorylation enrichment (Fyn) | phosphorylation enrichment (Hck) | phosphorylation enrichment (Jak2) | phosphorylation enrichment (MERTK) | phosphorylation enrichment (c-Abl (mouse)) | phosphorylation enrichment (c-Src) | SH2 binding enrichment (Grb2 SH2) | SH2 binding enrichment (SHP2-C SH2) | SH2 binding enrichment (c-Src SH2)
WCKPPYFSCAV [MMS22L_Y28] | 1.06 | 0.506 | 0.562 | 0.512 | 0.656 | 0.474 | 0.908 | 0.459 | 0.432 | 0.845 | 0.418 | 0.656 | 0.459 | 1.29 | 1.18 | 1.34
MTKEQYIKMNQ [ARFGEF2_Y797_R802Q] | 0.662 | 0.38 | 0.575 | 0.687 | 0.637 | 0.399 | 0.805 | 0.347 | 0.443 | 0.706 | 0.381 | 0.665 | 0.341 | 0.968 | 0.487 | 0.517
RQGKDYIGAIP [KDR_Y951_V952I] | 0.804 | 0.399 | 0.62 | 0.596 | 0.547 | 0.462 | 0.764 | 0.715 | 0.696 | 1.14 | 0.813 | 1.88 | 0.837 | 0.904 | 0.646 | 0.428
EVLKNYSQQKD [GOLGA4_Y1551_N1552S] | 0.545 | 0.419 | 0.456 | 0.404 | 0.56 | 0.417 | 0.609 | 0.438 | 0.476 | 0.657 | 0.458 | 0.494 | 0.433 | 0.887 | 0.782 | 0.501
AKNKDYMSFIR [GNE_Y197_I200F] | 0.606 | 0.812 | 0.648 | 0.478 | 0.478 | 0.34 | 0.646 | 0.61 | 0.946 | 0.647 | 0.465 | 0.661 | 0.972 | 1.09 | 1.23 | 0.754
NFADPYRQLPF [CTNND2_Y503_Q507P_YF] | 0.732 | 0.432 | 0.58 | 0.661 | 0.652 | 0.46 | 0.728 | 0.587 | 0.659 | 0.62 | 0.417 | 0.638 | 0.642 | 0.728 | 0.817 | 0.612
VVLGSYDRLRV [IFT172_Y260] | 0.584 | 0.442 | 0.451 | 0.45 | 0.582 | 0.45 | 0.75 | 0.404 | 1.11 | 0.546 | 0.341 | 0.452 | 0.405 | 0.724 | 0.863 | 1.17
QRALLYEDTLY [UNC13D_Y56_A59T] | 1.54 | 15.2 | 12.5 | 0.648 | 1.02 | 12.1 | 2.2 | 3.98 | 4.67 | 0.942 | 6 | 0.819 | 3.24 | 0.62 | 0.537 | 0.885
ALAHKYPGGGG [HBB_Y146_H147P] | 0.214 | 0.894 | 0.84 | 0.853 | 0.662 | 0.432 | 0.632 | 0.559 | 0.273 | 0.262 | 0.334 | 0.436 | 0.281 | 0.516 | 0.581 | 0.384
REVPVYTDSEP [FAM120B_Y368] | 1.35 | 0.965 | 0.725 | 0.588 | 1.4 | 0.895 | 1.35 | 0.753 | 0.643 | 1.38 | 0.478 | 0.964 | 0.872 | 0.986 | 0.351 | 0.911
LEGKEYRMSGE [KRT3_Y511_E509K] | 0.73 | 0.434 | 0.333 | 0.432 | 0.618 | 0.455 | 0.985 | 0.456 | 0.409 | 0.923 | 0.439 | 0.583 | 0.415 | 0.85 | 1.12 | 0.362
PLFRVYGLESL [INSR_Y94_L89P] | 1.2 | 0.803 | 0.673 | 0.58 | 0.686 | 0.571 | 1.43 | 1.03 | 0.574 | 1.43 | 0.508 | 1.15 | 0.864 | 0.851 | 0.663 | 0.345
EIPTQYEAMAS [GFAP_Y242_R239P] | 0.982 | 0.853 | 0.577 | 0.536 | 0.694 | 0.662 | 1.04 | 0.487 | 0.596 | 0.802 | 0.445 | 0.615 | 0.405 | 0.674 | 0.629 | 2.5
ALWFIYSHTRS [ENG_Y614_YF] | 1.01 | 0.597 | 0.445 | 0.44 | 0.676 | 0.45 | 1.5 | 0.423 | 0.448 | 0.956 | 0.34 | 0.697 | 0.379 | 1.13 | 0.81 | 0.552
HTVVSYAKVRA [CLOCK_Y378_E380K] | 1.2 | 0.749 | 0.972 | 0.917 | 0.933 | 0.673 | 1.3 | 1.23 | 0.85 | 1.04 | 0.934 | 0.65 | 0.489 | 1.11 | 14.5 | 1.12
SGADSYEMEED [EGFR_Y316_C311S] | 1.29 | 0.574 | 0.585 | 0.822 | 0.871 | 0.52 | 1.16 | 0.625 | 0.668 | 1.12 | 0.722 | 0.749 | 0.561 | 0.979 | 0.701 | 0.728
SAASGYSDVTD [DTX2_Y425_T421A] | 0.866 | 0.646 | 0.589 | 0.633 | 0.569 | 0.535 | 0.95 | 0.232 | 0.458 | 0.963 | 0.294 | 0.446 | 0.338 | 1.98 | 0.979 | 6.28

Sequence | phosphorylation enrichment (AncSZ) | phosphorylation enrichment (EPHB1) | phosphorylation enrichment (EPHB2) | phosphorylation enrichment (FGFR1) | phosphorylation enrichment (FGFR3) | phosphorylation enrichment (Fer (mouse)) | phosphorylation enrichment (Fes) | phosphorylation enrichment (Fyn) | phosphorylation enrichment (Hck) | phosphorylation enrichment (Jak2) | phosphorylation enrichment (MERTK) | phosphorylation enrichment (c-Abl (mouse)) | phosphorylation enrichment (c-Src) | SH2 binding enrichment (Grb2 SH2) | SH2 binding enrichment (SHP2-C SH2) | SH2 binding enrichment (c-Src SH2)
LTQRTYMSENA [GPAA1_Y49] | 0.636 | 0.364 | 0.528 | 0.452 | 0.485 | 0.429 | 0.613 | 0.376 | 0.455 | 0.65 | 0.47 | 0.488 | 0.429 | 0.783 | 0.801 | 0.422
DEEYEYMNRRR [ERBB3_Y1199] | 1.57 | 0.465 | 0.503 | 0.501 | 0.629 | 0.466 | 0.986 | 0.483 | 0.546 | 0.93 | 0.37 | 0.65 | 0.454 | 0.837 | 0.701 | 0.619
IVVVPYEPPEV [TP53_Y220_S215I] | 1.01 | 0.636 | 0.544 | 0.511 | 0.665 | 0.554 | 1.08 | 0.43 | 0.48 | 0.882 | 0.448 | 0.733 | 0.386 | 0.835 | 0.763 | 0.811
RRIEKYVDQGK [IRAK3_Y61_H57R] | 0.88 | 0.615 | 0.322 | 0.736 | 0.416 | 0.326 | 0.662 | 0.516 | 0.445 | 0.419 | 0.571 | 0.56 | 0.483 | 0.72 | 0.333 | 0.535
YQLPYYNTVPS [BMPR1A_Y458_M460T] | 2 | 0.642 | 0.799 | 5.46 | 3.69 | 2.1 | 0.684 | 0.92 | 1.46 | 4.98 | 5.81 | 2.34 | 3.46 | 9.88 | 1.1 | 8.81
YENGEYIIRQG [PRKG1_Y247] | 1.11 | 0.552 | 0.555 | 0.432 | 0.611 | 0.418 | 1.04 | 0.453 | 0.589 | 0.913 | 0.386 | 0.66 | 0.542 | 37.5 | 1.22 | 9.41
GFRVFYTPDSR [PTPRF_Y451_YF] | 0.962 | 0.562 | 0.448 | 0.52 | 0.64 | 0.462 | 1.19 | 0.468 | 0.564 | 1.03 | 0.37 | 0.612 | 0.449 | 1.17 | 0.861 | 0.598
HGEAYYSEVKA [PAK5_Y182_P187A] | 1.04 | 0.926 | 0.563 | 2.83 | 1.85 | 3.92 | 0.773 | 1.68 | 2.47 | 1.98 | 4.12 | 0.506 | 2.22 | 0.994 | 0.897 | 4.04
HSDYQYSQRSQ [PKP2_Y168] | 0.821 | 0.495 | 0.645 | 0.344 | 0.377 | 0.365 | 0.587 | 0.39 | 0.353 | 1.11 | 0.501 | 0.749 | 0.519 | 0.91 | 0.587 | 0.484
WFISFYPQVIM [CTNS_Y143_S139F] | 1.22 | 0.541 | 0.637 | 0.485 | 0.838 | 0.451 | 1.53 | 0.413 | 0.446 | 1.13 | 0.315 | 0.758 | 0.359 | 0.684 | 0.618 | 0.444
PIFEGYALPHA [ACTA1_Y171_YF] | 0.82 | 0.546 | 0.574 | 0.536 | 0.665 | 0.49 | 0.778 | 0.536 | 0.541 | 0.717 | 0.807 | 2.44 | 0.562 | 0.877 | 0.769 | 4.62
YGPPQYNMQYS [ERBB2IP_Y977_I979M] | 0.794 | 0.472 | 0.426 | 0.442 | 0.448 | 0.499 | 0.577 | 0.547 | 0.746 | 0.496 | 0.478 | 0.481 | 0.499 | 0.849 | 0.661 | 0.434
GIFEDYVEGLR [MYL6_Y89_T85I_YF] | 1.25 | 0.787 | 0.7 | 0.567 | 0.793 | 0.607 | 1.17 | 0.7 | 0.484 | 1.22 | 0.393 | 0.857 | 0.536 | 0.866 | 0.645 | 0.462
PSFSEYASVQV [SIRPA_Y496] | 1.11 | 6.25 | 8.42 | 1.05 | 1.05 | 3.49 | 0.801 | 2.49 | 1.93 | 1.02 | 0.474 | 4.02 | 2.35 | 0.997 | 0.952 | 0.705
PRSRSYSSTSI [REPS2_Y462] | 1.11 | 0.538 | 0.523 | 0.743 | 0.611 | 0.57 | 1.71 | 1.06 | 0.468 | 1.2 | 1 | 0.932 | 1.33 | 0.893 | 0.423 | 0.388
MDQAEYQAKIR [DHX58_Y518] | 0.616 | 0.299 | 0.476 | 0.441 | 0.412 | 0.433 | 0.708 | 0.477 | 0.424 | 0.659 | 0.446 | 0.729 | 0.43 | 0.754 | 1.04 | 0.612
